Article doi:10.1101/2025.11.02.686180
Where two headings read alike, the source gives them in different places.

How the values were obtained:
[1] = target: T1, Tau441 (longest isoform of tau) (human, UniProt P10636-8 1-441); assay: competition
[2] = target: T2, SARS-CoV-2 nucleocapsid protein (NP) (SARS-CoV-2, UniProt P0DTC9 1-419); assay: MST
[3] = target: T3, thrombin (Tb) (UniProt P00734;P00734 328-363;364-622); assay: 0.1 ng/mL thrombin
[4] = target: T1, Tau441 (longest isoform of tau); assay: competition; remark: listed apart in the source
[5] = target: T3, thrombin (Tb); assay: thrombin 0.02-20 pg/mL in water
[6] = target: T2, SARS-CoV-2 nucleocapsid protein (NP); assay: MST; remark: listed apart in the source

CCTGTCAGGTCTTTGACGAGGCTTTTCTTC (ssDNA, 3' C3 spacer) [Tau aptamer (core)]
binding result [1]: binds

CGCTTACGACAATATTCCTTAGGGGCACCGCTACATTGACACATCCAGC (ssDNA, 3' C3 spacer) [N9-Apt]
binding signal [2]: > 5 fold affinity vs Nor-Apt | binding result [3]: no binding | binding result [4]: no binding

AGTCCGTGGTAGGGCAGGTTGGGGTGACT (ssDNA, 3' C3 spacer) [thrombin aptamer 29 nt]
binding result [5]: binds

B1: Nor-Apt (ssDNA)
DNA: GCTGGATGTCGCTTACGACAATATTCCTTAGGGGCACCGCTACATTGACACATCCAGC
modifications: 3' C3 spacer
binding result [6]: binds
